Measured values from PMC3953403, “Drosophila SNAP-29 Is an Essential SNARE That Binds Multiple Proteins Involved in Membrane Traffic” (PLoS ONE, 2014).

B1: dSNAP (Drosophila soluble NSF attachment protein), endogenous (natural protein, Drosophila (endogenous in S2 cells), UniProt Q23983 1-292, looked up)
chain: MGDNEQKALQLMAEAEKKLTQQKGFLGSLFGGSNKVEDAIECYQRAGNMFKMSKNWTKAGECFCEAATLHARAGSRHDAGTCYVDASNCYKKVDVESAVNCLMKSIDIYTDMGRFTMAAKHHQSIAEMYESDPNNLAKSIQHYEQAADYFKGEESVSSANKCMLKVAQYAAQLEDYEKAISIYEQVAASSLESSLLKYSAKEYFFRAALCHLSVDLLNAQHAIEKYAQQYPAFQDSREFKLIKVLCENLEEQNIEGFTEAVKDYDSISRLDQWYTTILLRIKKAADEDPDLR
notes: Drosophila SNAP (soluble NSF attachment protein), endogenous in Schneider S2 cells; also called Drosophila SNAP; source: endogenous, S2 cell lysate
B2: dsyntaxin1, endogenous (natural protein, UniProt Q24547 1-291, looked up)
chain: MTKDRLAALHAAQSDDEEETEVAVNVDGHDSYMDDFFAQVEEIRGMIDKVQDNVEEVKKKHSAILSAPQTDEKTKQELEDLMADIKKNANRVRGKLKGIEQNIEQEEQQNKSSADLRIRKTQHSTLSRKFVEVMTEYNRTQTDYRERCKGRIQRQLEITGRPTNDDELEKMLEEGNSSVFTQGIIMETQQAKQTLADIEARHQDIMKLETSIKELHDMFMDMAMLVESQGEMIDRIEYHVEHAMDYVQTATQDTKKALKYQSKARRKKIMILICLTVLGILAASYVSSYFM
notes: Drosophila syntaxin 1, endogenous in S2 cells (pull-down) and in embryos (co-IP); also called dSyx1; source: endogenous, S2 cell lysate; endogenous, Oregon R embryo lysate
B3: dsyntaxin 16, endogenous (natural protein, UniProt Q9VR90 1-352, looked up)
chain: MTSRNLTEVFVIMRNNASKNRNHYDDRRGSDAERLLKHSVREAEEGLELQDDYGTPPAWLDKFEEAQYTMSKIKPKLDELGSLHARHLLRPAFDDQRDDECDIEVLSQIVSKLITSTHRHIQCVRSSIGVGSKMEQCLTVNAVHCALLQLQELTVKFRASQNAYLLQLNSREERSQKYFDDGGGAGAGDVFTNVELGEQSAENFVDSFDNFLQPPAEGKSGNGYLFEDDEQAIDDHFQRPPASRMTQQQLLLFEEENTRVAQHREQEVTKIVKSIYDLNDIFKDLGHMVQEQGTVLDRIDYNVEQTQTRVSEGLRQLHKAEMYQRKNRKMCVILVLAAVTFFMLLLLILTKL
notes: Drosophila syntaxin 16, endogenous in S2 cells (pull-down) and in embryos (co-IP); also called dSyx16; dSyx 16; source: endogenous, S2 cell lysate; endogenous, Oregon R embryo lysate

Target: T1, GST-dSNAP-29 (Drosophila, UniProt Q9W1I8 1-284)
T1 construct: Drosophila SNAP-29 (CG11173, ubisnap/usnp), full-length cDNA amplified from EST clone LD17127 and subcloned into pGEX-KG; predicted mass 32 kDa; Vector pGEX-KG; also called GST-SNAP-29; Drosophila SNAP-29; source: coupled to glutathione beads
T1 sequence (looked up): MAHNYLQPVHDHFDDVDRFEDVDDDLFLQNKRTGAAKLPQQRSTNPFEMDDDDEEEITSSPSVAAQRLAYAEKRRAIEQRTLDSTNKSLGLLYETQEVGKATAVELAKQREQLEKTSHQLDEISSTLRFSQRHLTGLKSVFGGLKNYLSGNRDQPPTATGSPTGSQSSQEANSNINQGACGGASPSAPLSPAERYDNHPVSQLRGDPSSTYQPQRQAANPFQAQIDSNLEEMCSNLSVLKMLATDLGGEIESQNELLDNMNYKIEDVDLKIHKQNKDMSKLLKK
Experiment: pull-down; 0.5 mg GST fusion or GST on 120 uL glutathione beads, incubated with pre-cleared S2 cell lysate (PLC or NP40 lysis buffer, 0.1% gelatin, 0.1% BSA); washes 50 mM HEPES pH 7.5, 150 mM NaCl, 2 mM EDTA; western blot
Settings: for percent recovered from the lysate: one partner purified

Molecule	percent pulled down from the lysate [%]	percent recovered from the lysate [%]
DAP160, endogenous (natural protein)	15	–
dEHD1, endogenous (natural protein)	12	–
B1	–	~7
B2	–	6
B3	–	4
